Experimental data published in patent publication US20240417436A1 (BRIGHT PEAK THERAPEUTICS, published 2024).
Read-outs that look alike come from different tables or passages of the source. Bridges are numbered along the chain shown (N, C = ends). [ ]: non-standard residue; d: D form. Ygp = O-(8x polyethylene glycol-amino)-tyrosine; Yn3 = O-(9x polyethylene glycol-azido)-tyrosine; hSer = N[C@@H](CCO)C(=O)O; Nle = CCCC[C@H](N)C(=O)O

Columns and labels:
[1] = biological target: T1, recombinant human IL-2 receptor beta containing a His-tag and Avi-Tag (R&D Systems #AVI10459) (human, UniProt P14784 27-239); assay: BLI (Octet), receptor on SAX2 sensor, IL-2 as analyte; construct CMP-145
T1 construct: bought protein, held on the Octet SAX2 sensor; also called CD122; IL-2Rβ
T1 sequence (looked up): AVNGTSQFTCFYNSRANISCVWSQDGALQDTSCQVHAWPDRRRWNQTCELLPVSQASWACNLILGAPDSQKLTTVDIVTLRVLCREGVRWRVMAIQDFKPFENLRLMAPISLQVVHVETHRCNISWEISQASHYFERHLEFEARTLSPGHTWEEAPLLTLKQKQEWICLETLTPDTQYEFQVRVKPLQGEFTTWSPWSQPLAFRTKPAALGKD
Experimental: (§1) Bilayer interferometry (BLI) assays were used to measure the binding constants between activatable IL-2 polypeptides (and activated versions thereof) to IL-2 receptor subunits or receptor complexes. BLI assays were conducted on an Octet® R8 instrument. Assay plates were 96 well, polypropylene, F-bottom (chimney well), black microplates (Greiner Bio-one, Cat. No: 655209). The biosensors were Octet® SAX2 (Sartorius, Cat. No: 18-5136). The assay buffer was 1× Kinetic Buffer (Sartorius, Cat. no: 18-5136) or Phosphate Buffered Saline (PBS) that contained 0.02% (v: v) Tween 20 (Polysorbate 20) and 0.1% (w/v) bovine serum albumin (BSA). The sensor was regenerated between measurements in 10 mM glycine pH 2.7 buffer.
(§2) Sensor attached receptors were either recombinant human IL-2 receptor beta containing a His-tag and Avi-Tag™ (R&D Systems™ #AVI10459) or an Avi-Tag™ Fc with human IL-2R beta and IL-2R gamma attached (Acrobiosystems Cat. no: ACRB-ILG-H82F3-25UG). Receptors were reconstituted from lyophilized powder to 500 μg/ml in PBS. Analytes were diluted in Kinetic buffer to 300 nM, then serially diluted to lower concentrations.

[2] = biological target: T2, Avi-Tag Fc with human IL-2R beta and IL-2R gamma attached (Acrobiosystems ACRB-ILG-H82F3-25UG) (human, UniProt P14784 27-239; P31785 23-262); assay: BLI (Octet), receptor on SAX2 sensor, IL-2 as analyte
T2 construct: bought heterodimer; also called CD122 CD132; CD122/CD132 complex
T2 sequence (looked up) 1: T1 sequence (looked up)
T2 sequence (looked up) 2: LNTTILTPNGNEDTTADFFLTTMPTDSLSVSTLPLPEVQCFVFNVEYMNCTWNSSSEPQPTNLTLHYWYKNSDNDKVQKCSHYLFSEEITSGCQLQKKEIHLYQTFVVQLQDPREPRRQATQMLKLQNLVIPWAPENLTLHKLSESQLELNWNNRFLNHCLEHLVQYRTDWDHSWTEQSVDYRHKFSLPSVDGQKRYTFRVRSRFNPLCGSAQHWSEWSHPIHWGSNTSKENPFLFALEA
Experimental: as §1, §2

[3] = biological target: T1, recombinant human IL-2 receptor beta …; assay: BLI (Octet), receptor on SAX2 sensor, IL-2 as analyte; construct CMP-168, intact (not the MMP2-treated row r13)
Experimental: as §1, §2

[4] = biological target: T3, IL-2 receptor βγ complex on pan T cells (human, UniProt P14784 27-551; P31785 23-369); assay: cell-based or functional assay
T3 sequence (looked up) 1: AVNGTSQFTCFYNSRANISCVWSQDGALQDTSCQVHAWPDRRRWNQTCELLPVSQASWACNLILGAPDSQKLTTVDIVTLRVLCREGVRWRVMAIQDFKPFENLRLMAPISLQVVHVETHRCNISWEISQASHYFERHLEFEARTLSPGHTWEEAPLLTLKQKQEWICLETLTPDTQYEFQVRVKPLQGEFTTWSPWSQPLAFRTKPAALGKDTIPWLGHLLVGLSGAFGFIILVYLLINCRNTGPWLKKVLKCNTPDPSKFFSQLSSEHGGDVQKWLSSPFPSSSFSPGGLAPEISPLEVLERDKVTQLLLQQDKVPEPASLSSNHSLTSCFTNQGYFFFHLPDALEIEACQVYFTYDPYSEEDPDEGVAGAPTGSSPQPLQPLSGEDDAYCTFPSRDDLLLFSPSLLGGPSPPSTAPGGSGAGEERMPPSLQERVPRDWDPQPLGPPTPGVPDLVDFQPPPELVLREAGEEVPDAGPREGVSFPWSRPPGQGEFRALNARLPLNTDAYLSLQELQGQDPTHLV
T3 sequence (looked up) 2: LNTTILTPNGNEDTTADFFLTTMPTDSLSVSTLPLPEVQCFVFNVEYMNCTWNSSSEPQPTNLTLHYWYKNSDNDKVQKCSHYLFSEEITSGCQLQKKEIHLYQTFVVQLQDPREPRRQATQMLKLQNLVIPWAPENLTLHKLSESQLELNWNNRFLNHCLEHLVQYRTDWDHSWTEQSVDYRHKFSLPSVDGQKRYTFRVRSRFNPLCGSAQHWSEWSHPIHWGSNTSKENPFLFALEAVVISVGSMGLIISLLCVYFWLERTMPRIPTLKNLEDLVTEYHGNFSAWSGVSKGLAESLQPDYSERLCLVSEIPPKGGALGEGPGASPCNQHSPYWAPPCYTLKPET

[5] = biological target: T1, recombinant human IL-2 receptor beta …; assay: BLI (Octet), receptor on SAX2 sensor, IL-2 as analyte
Experimental: as §1, §2

[6] = biological target: T3, IL-2 receptor βγ complex on pan T cells; assay: cell-based or functional assay; remark: listed apart in the source
[7] = biological target: T1, recombinant human IL-2 receptor beta …; assay: BLI (Octet), receptor on SAX2 sensor, IL-2 as analyte; construct CMP-151, macrocyclic activatable IL-2 polypeptide
Experimental: as §1, §2

[8] = biological target: T4, recombinant biotinylated PD1/CD279 protein (Biolegend 789406) (human, UniProt Q15116 25-167, limits assumed, biotinylated); assay: ELISA, test molecule coated, biotinylated PD-1 titrated, streptavidin-HRP
T4 construct: also called human PD1
Experimental: Plates were then washed four times with 100 μl of PBS-0.2% Tween20 (wash buffer). […] Plates were then washed four times with 100 μl of wash buffer. […] Plates were then washed four times with wash buffer. […] Plates were then washed four times with 100 μl of wash buffer. Fifty microliters of TMB substrate reagent (#CL07, Merck, Buchs, Switzerland) were added to each well and incubated at 37° C. during 5 min. After 5 min at 37° C., Horseradish peroxidase reaction was stopped by adding 50 μl/well of 0.5M H₂SO₄ stop solution. ELISA signal was then measured at 450 nm on an EnSpire plate reader from Perkin Elmer (Schwerzenbach, Switzerland).

mouse FcRn = biological target: T5, mouse FcRn (mouse, UniProt Q61559 22-297; P01887 21-119, limits assumed); assay: analogous AlphaLISA protocol with mouse FcRn
T5 construct: construct not described
T5 sequence (looked up): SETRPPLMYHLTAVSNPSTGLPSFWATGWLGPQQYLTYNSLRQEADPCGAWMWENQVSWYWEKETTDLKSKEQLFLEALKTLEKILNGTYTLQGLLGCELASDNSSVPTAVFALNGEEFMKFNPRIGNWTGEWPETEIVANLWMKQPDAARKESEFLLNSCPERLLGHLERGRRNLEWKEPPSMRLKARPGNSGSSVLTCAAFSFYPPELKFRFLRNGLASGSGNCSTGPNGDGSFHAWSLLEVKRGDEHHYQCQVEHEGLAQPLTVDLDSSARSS
T5 sequence (b2m, looked up): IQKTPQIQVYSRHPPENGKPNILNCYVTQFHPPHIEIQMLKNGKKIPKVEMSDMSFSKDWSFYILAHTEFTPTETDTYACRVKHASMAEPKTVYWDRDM
Experimental: (§3) FcRn Binding Assays—The ability of the activatable immunocytokines to bind to FcRn receptor was performed following manufacturer's instructions using the AlphaLISA FcRn Human Binding kit, Perkin Elmer, Cat #AL3095C. An analogous protocol was performed husing mouse FcRn.

[9] = biological target: T6, human FcRn (AlphaLISA FcRn Human Binding kit, Perkin Elmer AL3095C) (human, UniProt P55899 24-297; P61769 21-119, limits assumed); assay: AlphaLISA FcRn Human Binding kit (competition)
T6 construct: kit reagent, construct not described
Experimental: as §3

[10] = biological target: human PD-1 on Jurkat T cells (PD-1/PD-L1 Blockade Bioassay) (human, UniProt Q15116 25-288); assay: cell-based or functional assay
[11] = biological target: T7, recombinant Human Fc gamma RI/CD64 Protein (R&D systems, 1257-FC-050) (human, UniProt P12314 16-288); assay: ELISA, test molecule coated, human CD64 titrated
T7 construct: also called human FcgR I (CD64); FcγRI
Experimental: FcγRI (CD64) Binding Assays—The interaction of the activatable immunocytokines with human Fc gamma receptors I (FcγRI/CD64) was measured by ELISA. Briefly, Corning high-binding half-area plates (Fisher Scientific, Reinach, Switzerland) were coated overnight at 4° C. with 25 μl of immunocytokines at […] in PBS. Plates were then washed four times with 100 μl of PBS-0.2% Tween20 (wash buffer). Plates surfaces were blocked with 25 μl of PBS1% BSA at 37° C. for 1h. Plates were then washed four times with wash buffer. Then twenty-five microliters of either recombinant Human Fc gamma RI/CD64 Protein (R&D systems, 1257-FC-050, CF) was added in serial dilutions into PBS-T-0.1% BSA and incubated at 37° C. for 2h. Plates were then washed four times with 100 μl of wash buffer. Twenty-five microliters of Streptavidin-Horseradish peroxidase (#RABHRP3, Merck, Buchs, Switzerland) diluted into PBS-T-0.1% BSA were added to each well and incubated at Room Temperature for 1h. Plates were then washed four times with wash buffer. TMB substrate reagent (#CL07, Merck, Buchs, Switzerland) were added to each well and incubated for 5 min. After 5 min, Horseradish peroxidase reaction was stopped by adding 1M H2SO4 stop solution. ELISA signal was then measured at 450 nm on a plate reader.

mouse CD64 = biological target: T8, mouse CD64 (mouse, UniProt P26151 25-297, limits assumed); assay: ELISA, analogous protocol with mouse CD64
T8 construct: construct not described; also called mouse FcgR I (CD64)
T8 sequence (looked up): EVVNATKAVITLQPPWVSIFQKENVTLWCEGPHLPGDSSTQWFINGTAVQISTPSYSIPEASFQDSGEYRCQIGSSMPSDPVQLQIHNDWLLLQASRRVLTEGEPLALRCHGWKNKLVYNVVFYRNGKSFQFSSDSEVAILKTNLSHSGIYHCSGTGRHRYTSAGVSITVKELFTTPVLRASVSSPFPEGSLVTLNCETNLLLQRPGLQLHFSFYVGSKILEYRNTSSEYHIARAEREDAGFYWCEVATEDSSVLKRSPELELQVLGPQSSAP

B1: CMP-145 (ligand)
chain: APTSSSTKKTQLQLEHLLLDLQKILNGINNYKNPKLTR[Nle]L[hSer][Yn3]KF[Ygp][Nle]PKKATELKHLQCLEEELKPLEEVL[hSer]LAQSKNFHLRPRDLISNINVIVLELKGSETTF[hSer]CEYADETATIVEFLNRWITFSQSIISTLT
modifications: disulfide 58-105; not fully specified (residue 23); also: branched 27x PEG chains on the attached KKPLGLAG peptide, places not given here
B1 was tested, and the Kd [1] was 1830 nM and the koff [2] was 0.00117 s⁻¹.

B2: CMP-168 (ligand)
chain: APTSSSTKKTQLQLEHLLLDLQEILNGINNYKNPKLTR[Nle]L[hSer][Yn3]KF[Ygp][Nle]PKKATELKHLQCLEEELKPLEEVL[hSer]LAQSKNFHLRPRDLISNINVIVLELKGSETTF[hSer]CEYADETATIVEFLNRWITFSQSIISTLT
modifications: disulfide 58-105 (inferred); bridge 9-23; not fully specified (residue 23, bridges)
With B2 the Kd [3] was 25100 nM, the “Average EC50, pSTAT5 assay in pan T cells, intact molecule” value [4] was 144 nM and the Kd [2] was 136 nM. For the same binder, the koff [2] was 0.0022 s⁻¹, the kon [2] was 16200 M⁻¹ s⁻¹ and the koff [5] was 0.0721 s⁻¹. For the same binder, the kon [5] was 2880 M⁻¹ s⁻¹.

B3: CMP-151 (ligand)
chain: APTSSSTKKTQLQLEHLLLDLQKILNGINNYKNPKLTR[Nle]L[hSer][Yn3]KF[Ygp][Nle]PKKATELKHLQCLEEELKPLEEVL[hSer]LAQSKNFHLRPRDLISNINVIVLELKGSETTF[hSer]CEYADETATIVEFLNRWITFSQSIISTLT
modifications: disulfide 58-105; bridge N-23; not fully specified (bridges)
B3 was tested, and the “Average EC50, pSTAT5 assay in pan T cells, intact molecule” value [6] was 28.2 nM and the Kd [7] was 65.4 nM.

B4: LZM-009 (antibody, human IgG4 S228P, kappa)
heavy: not shown
light: EIVLTQSPATLSLSPGERATISCRASKGVSTSGYSYLHWYQQKPGQAPRLLIYLASYLESGVPARFSGSGSGTDFTLTISSLEPEDFATYYCQHSRELPLTFGTGTKVEIKRTVAAPSVFIFPPSDEQLKSGTASVVCLLNNFYPREAKVQWKVDNALQSGNSQESVTEQDSKDSTYSLSSTLTLSKADYEKHKVYACEVTHQGLSSPVTKSFNRGEC
notes: unconjugated anti-PD-1 IgG4; also called LZM-009 Intact
Work on B4 yielded an EC50 [8] of 0.05 nM, an EC50 (mouse FcRn) of 0.77 nM and an IC50 [9] of 5.79 nM. For the same binder, the “Mean EC50, PD1/PD-L1 blockade (NFAT-RE luciferase reporter)” value [10] was 7.34 nM, the EC50 [11] was 0.32 nM and the EC50 (mouse CD64) was 554 nM.
